Data taken from the supplement of paper PMC9732359.
± gives the uncertainty stated by the source.

Assay: protein stability index of a GFP-peptide fusion (yeast GPS) (PSI 1-4); higher = more stable; sorted into four equal gates, so the index is relative within each strain
In short: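 The protein stability index combines read frequencies across sorting gates, each weighted by its gate number and then summed. To obtain those frequencies, a pooled yeast library of GFP fusions to tiled 17-residue yeast protein peptides, on a plasmid also expressing Cherry, was grown to mid-log phase in leucine-free medium. The cells were sorted into four equal gates by GFP/Cherry ratio before plasmid amplification by PCR and Illumina sequencing.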

Sequence	protein stability index (doa10∆)	protein stability index (pdr5∆)	protein stability index (san1∆)	protein stability index (ubr1∆)
TLKPTFSFTEPAQKDSS [YOR098C/NUP1]	2.78 ± 0.059	3.05 ± 0.067	2.99 ± 0.065	2.53 ± 0.037
ATKAINGCIFTLNPKTG [PRP8]	2.79 ± 0.095	2.73 ± 0.076	2.71 ± 0.059	2.88 ± 0.062
PKHSYLSGNPLTSVTND [SIR4]	2.67 ± 0.073	3.03 ± 0.071	3.17 ± 0.056	2.97 ± 0.074
PFHSHLLVPASDLINKD [FAS1]	1.83 ± 0.03	2.15 ± 0.035	2.13 ± 0.048	1.96 ± 0.032
QENKNIDDENITKLNKE [SRB4]	3.44 ± 0.056	3.23 ± 0.068	3.22 ± 0.052	3.46 ± 0.057
RQLANLIPFIVKQVLLS [NUT1]	1.62 ± 0.032	1.55 ± 0.028	1.59 ± 0.051	1.69 ± 0.033
HKSLIRSISWAPSIGRW [YGL100W/SEH1]	2.81 ± 0.12	3.1 ± 0.11	2.21 ± 0.22	3.1 ± 0.091
SNLEKLLFINSSKLVDV [YML103C/NUP188]	2.48 ± 0.094	2.07 ± 0.066	1.83 ± 0.12	2.62 ± 0.082
ILDSLPSVIHSSVEMLL [YDL116W/NUP84]	1.97 ± 0.055	1.44 ± 0.056	1.39 ± 0.084	1.44 ± 0.041
AFGEFSLEGCVEMAWIM [FAS2]	2.46 ± 0.1	2.63 ± 0.12	2.48 ± 0.079	2.37 ± 0.088
ERKRKSVRGAIVGPDLA [RPS6A]	3.38 ± 0.091	3.34 ± 0.075	3.33 ± 0.055	3.01 ± 0.13
LDEMELHPYNSRGLFEK [YDL116W/NUP84]	3.23 ± 0.094	3.04 ± 0.1	2.86 ± 0.076	3.22 ± 0.063
ADKNCAKLHRISPKIWC [PUP1]	2.09 ± 0.055	2.1 ± 0.061	1.94 ± 0.059	2.14 ± 0.05
PSVKRQKMAELEAARSE [PRP8]	3.31 ± 0.1	3.26 ± 0.075	3.31 ± 0.074	3.28 ± 0.077
RLDNLQDIKKAKRVENF [DSN1]	1.52 ± 0.059	1.42 ± 0.039	2.56 ± 0.074	2.56 ± 0.048
ADDAISMHLLKDWTDTF [SRB8]	3.12 ± 0.056	2.94 ± 0.058	2.94 ± 0.044	2.95 ± 0.065
ANEDEEEQLDALECRLA [CSN12]		2.65 ± 0.28		
YKIPKVMKDIYKVENVT [ESC2]		3.52 ± 0.16		
DNVIVINHKINNKITQL [SIR3]	2.08 ± 0.057	2.13 ± 0.05	2.08 ± 0.053	2.2 ± 0.04
SSAAILGLGIAFAGSKN [RPN1]	1.35 ± 0.081	1.94 ± 0.097	2.03 ± 0.29	1.34 ± 0.092
AEEFVAGVSHGTLGEIF [SMX3]				3.57 ± 0.28
ELPLVITMPATNGKPDM [ARP7]	2.9 ± 0.088	3.04 ± 0.074	2.9 ± 0.065	2.99 ± 0.059
MGKKTFREWQYFKLSIT [POP8]	1.5 ± 0.046	1.76 ± 0.045	1.47 ± 0.099	1.71 ± 0.042
HKVQTKLTRELEKKFQD [RPS7A]	2.43 ± 0.066	2.01 ± 0.06	2.37 ± 0.091	2.54 ± 0.048
IEALYDDDTFSDREMAA [RPN2]	2.19 ± 0.066	1.89 ± 0.051	1.57 ± 0.1	2.13 ± 0.054
GKELDSLDLNNLELGGL [PGD1]	3.08 ± 0.12	3.25 ± 0.12	2.99 ± 0.085	3.24 ± 0.066
NSILSVRDPWSIDFRTY [SRB2]	2.71 ± 0.1	2.68 ± 0.14	2.48 ± 0.22	2.98 ± 0.1
KTLVYLEKCEAEFKKRK [YCS4]	3.42 ± 0.28	3.69 ± 0.17		
